Test [1] deals with T1, human LH receptor, wild type (human, UniProt P22888 27-699). Put plainly: 125I-hCG displacement / Scatchard; panels A-C.
Test [2] deals with T1, human LH receptor, wild type. The test can be described thus: 125I-hCG displacement / Scatchard; panels D-F.
In the next test the target is T2, FSHR^S18A (human, UniProt P23945 18-695).
T2 chain: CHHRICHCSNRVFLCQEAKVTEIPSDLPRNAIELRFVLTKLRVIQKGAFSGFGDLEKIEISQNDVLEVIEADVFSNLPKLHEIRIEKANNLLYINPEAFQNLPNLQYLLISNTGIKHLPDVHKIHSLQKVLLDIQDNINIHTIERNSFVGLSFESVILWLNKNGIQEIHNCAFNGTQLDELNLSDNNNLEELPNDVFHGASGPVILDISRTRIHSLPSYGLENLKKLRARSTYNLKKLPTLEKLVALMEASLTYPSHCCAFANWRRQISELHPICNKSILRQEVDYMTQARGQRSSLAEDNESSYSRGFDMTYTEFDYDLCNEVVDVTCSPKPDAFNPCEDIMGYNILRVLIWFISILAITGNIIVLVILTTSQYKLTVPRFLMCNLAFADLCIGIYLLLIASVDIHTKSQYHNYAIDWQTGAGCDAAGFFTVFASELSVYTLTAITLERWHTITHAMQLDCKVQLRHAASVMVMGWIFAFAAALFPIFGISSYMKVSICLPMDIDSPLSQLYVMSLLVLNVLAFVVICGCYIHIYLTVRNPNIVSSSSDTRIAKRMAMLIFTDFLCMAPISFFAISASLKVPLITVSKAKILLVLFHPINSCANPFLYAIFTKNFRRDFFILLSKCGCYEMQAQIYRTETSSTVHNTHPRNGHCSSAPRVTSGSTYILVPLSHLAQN

For the next test, the target named is T3, FSHR^N10A (human, UniProt P23945 18-695).
T3 chain: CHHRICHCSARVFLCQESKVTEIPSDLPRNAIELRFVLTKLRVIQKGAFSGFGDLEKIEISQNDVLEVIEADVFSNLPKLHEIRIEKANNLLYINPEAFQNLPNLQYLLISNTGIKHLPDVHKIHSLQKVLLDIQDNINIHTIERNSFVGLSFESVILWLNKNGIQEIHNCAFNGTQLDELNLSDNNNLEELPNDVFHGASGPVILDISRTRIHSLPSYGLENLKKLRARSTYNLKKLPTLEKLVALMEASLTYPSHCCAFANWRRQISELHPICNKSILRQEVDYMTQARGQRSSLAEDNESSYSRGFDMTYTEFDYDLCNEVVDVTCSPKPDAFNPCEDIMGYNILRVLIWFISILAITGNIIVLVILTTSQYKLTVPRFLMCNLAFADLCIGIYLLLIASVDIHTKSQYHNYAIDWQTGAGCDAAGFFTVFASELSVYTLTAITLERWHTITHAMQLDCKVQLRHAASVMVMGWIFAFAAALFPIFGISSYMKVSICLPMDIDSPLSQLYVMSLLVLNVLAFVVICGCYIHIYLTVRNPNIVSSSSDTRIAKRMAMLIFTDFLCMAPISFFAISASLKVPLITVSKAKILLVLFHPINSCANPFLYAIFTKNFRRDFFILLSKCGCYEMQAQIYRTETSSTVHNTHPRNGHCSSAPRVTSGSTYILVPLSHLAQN

The next test deals with T4, FSHR^F13A (human, UniProt P23945 18-695).
T4 chain: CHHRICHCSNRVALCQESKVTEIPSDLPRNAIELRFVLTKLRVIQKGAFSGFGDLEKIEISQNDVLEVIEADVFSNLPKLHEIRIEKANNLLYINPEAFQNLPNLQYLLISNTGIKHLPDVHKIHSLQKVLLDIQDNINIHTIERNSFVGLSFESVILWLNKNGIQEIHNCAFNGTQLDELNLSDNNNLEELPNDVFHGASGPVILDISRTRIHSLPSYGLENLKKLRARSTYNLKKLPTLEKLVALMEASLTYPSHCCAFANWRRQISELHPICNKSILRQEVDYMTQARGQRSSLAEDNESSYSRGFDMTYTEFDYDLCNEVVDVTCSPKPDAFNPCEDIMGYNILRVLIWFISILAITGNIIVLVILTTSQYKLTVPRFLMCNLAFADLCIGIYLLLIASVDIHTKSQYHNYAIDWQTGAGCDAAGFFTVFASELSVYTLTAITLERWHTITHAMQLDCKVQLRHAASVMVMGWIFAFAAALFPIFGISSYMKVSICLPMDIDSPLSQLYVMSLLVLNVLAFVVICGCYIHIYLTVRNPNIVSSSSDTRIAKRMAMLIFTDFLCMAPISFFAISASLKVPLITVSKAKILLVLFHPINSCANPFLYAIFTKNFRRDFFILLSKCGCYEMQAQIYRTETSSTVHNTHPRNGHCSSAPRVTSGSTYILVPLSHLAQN

The target of a further test is T5, FSHR^S9A (human, UniProt P23945 18-695).
T5 chain: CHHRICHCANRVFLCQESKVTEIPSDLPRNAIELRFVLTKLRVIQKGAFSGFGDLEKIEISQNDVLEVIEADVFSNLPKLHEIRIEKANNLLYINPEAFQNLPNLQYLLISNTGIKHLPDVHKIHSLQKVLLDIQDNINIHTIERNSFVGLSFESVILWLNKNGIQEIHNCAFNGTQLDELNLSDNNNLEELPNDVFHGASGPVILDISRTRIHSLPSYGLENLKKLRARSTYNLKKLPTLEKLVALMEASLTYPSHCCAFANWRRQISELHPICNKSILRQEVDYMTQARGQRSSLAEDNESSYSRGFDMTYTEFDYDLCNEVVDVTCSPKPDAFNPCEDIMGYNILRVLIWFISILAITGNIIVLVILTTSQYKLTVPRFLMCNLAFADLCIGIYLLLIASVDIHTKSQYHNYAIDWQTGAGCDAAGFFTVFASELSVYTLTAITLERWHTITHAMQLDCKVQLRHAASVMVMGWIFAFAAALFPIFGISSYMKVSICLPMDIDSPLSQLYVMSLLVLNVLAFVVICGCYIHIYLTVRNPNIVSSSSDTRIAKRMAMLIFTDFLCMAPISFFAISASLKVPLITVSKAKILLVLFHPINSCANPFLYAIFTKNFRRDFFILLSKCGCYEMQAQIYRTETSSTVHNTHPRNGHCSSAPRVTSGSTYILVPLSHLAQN

The next test concerns the target T6, FSHR^V12A (human, UniProt P23945 18-695).
T6 chain: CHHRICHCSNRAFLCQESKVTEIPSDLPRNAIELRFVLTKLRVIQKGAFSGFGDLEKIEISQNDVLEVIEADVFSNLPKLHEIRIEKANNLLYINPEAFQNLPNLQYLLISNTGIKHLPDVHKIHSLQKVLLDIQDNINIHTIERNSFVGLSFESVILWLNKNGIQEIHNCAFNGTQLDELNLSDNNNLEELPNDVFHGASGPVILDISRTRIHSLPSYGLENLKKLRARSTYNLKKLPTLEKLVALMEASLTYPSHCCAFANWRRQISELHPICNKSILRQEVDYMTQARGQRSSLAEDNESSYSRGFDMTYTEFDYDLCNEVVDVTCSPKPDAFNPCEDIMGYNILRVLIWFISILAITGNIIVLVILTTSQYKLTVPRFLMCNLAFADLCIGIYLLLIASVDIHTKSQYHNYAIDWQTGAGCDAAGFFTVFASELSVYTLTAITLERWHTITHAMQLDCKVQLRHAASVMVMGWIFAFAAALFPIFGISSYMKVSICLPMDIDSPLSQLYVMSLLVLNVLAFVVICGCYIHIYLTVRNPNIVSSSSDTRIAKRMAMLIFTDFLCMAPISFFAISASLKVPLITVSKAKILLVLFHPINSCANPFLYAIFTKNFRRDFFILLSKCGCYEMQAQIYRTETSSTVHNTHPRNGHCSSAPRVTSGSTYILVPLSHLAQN

The target of another test is T7, FSHR^L14A (human, UniProt P23945 18-695).
T7 chain: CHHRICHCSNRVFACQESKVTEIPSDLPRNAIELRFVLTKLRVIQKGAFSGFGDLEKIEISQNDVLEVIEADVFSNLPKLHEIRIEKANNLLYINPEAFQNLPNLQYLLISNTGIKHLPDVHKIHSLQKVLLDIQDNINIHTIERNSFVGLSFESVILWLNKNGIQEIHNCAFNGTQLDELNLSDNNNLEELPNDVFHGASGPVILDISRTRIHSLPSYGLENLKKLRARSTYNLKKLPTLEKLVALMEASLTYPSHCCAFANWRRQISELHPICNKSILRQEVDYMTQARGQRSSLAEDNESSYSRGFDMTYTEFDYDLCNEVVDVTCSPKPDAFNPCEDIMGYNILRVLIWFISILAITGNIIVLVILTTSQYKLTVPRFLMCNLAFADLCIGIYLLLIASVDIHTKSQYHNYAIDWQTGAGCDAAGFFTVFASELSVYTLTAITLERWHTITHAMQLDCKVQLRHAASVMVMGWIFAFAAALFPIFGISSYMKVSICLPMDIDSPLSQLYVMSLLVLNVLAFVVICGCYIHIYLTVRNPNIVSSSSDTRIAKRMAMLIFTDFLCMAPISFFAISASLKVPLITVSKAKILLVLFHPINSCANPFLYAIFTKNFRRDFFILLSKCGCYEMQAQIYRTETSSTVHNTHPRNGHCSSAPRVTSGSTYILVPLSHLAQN

The next test addresses C. The test can be described thus: 125I-FSH displacement, Scatchard.
A further test concerns the target P. The test can be described thus: 125I-FSH displacement, Scatchard.
Another test deals with D. The test can be described thus: 125I-FSH displacement, Scatchard.
A further test deals with K590 Q. Put plainly: 125I-FSH displacement / Scatchard.
A further test has as its target P582 E. Put plainly: 125I-FSH displacement / Scatchard.
For a further test, the target named is P582 R. Put plainly: 125I-FSH displacement / Scatchard.
A further test addresses P582 C. Put plainly: 125I-FSH displacement / Scatchard.
The target of the next test is P582 Y. Put plainly: 125I-FSH displacement / Scatchard.
The target in another test is P582 L. Put plainly: 125I-FSH displacement / Scatchard.
A further test has as its target P582 Q. Put plainly: 125I-FSH displacement / Scatchard.
The target of another test is P582 S. The test can be described thus: 125I-FSH displacement / Scatchard.
In another test the target is P582 D. The test can be described thus: 125I-FSH displacement / Scatchard.
A further test has as its target P582 F. The test can be described thus: 125I-FSH displacement / Scatchard.

T1 sequence (P22888 27-699): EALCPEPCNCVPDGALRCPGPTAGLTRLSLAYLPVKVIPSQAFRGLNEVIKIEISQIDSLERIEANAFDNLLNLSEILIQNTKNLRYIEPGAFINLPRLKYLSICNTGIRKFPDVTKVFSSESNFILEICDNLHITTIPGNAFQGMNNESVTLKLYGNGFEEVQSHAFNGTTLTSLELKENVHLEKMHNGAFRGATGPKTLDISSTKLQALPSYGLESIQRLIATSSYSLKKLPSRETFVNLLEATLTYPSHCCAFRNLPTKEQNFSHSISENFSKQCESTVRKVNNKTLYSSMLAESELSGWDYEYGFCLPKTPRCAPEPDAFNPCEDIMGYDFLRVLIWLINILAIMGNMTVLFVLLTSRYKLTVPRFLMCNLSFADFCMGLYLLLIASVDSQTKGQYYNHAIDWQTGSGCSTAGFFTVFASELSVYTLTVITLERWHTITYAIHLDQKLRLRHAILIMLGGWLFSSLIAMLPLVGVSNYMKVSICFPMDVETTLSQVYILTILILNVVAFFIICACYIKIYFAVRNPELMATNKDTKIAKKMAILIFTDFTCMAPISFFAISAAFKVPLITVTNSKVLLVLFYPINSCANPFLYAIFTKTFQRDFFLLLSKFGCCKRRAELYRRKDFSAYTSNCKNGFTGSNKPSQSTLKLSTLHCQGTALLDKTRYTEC

B1: hCG (ligand)
chain 1: not shown
chain 2: SKEPLRPRCRPINATLAVEKEGCPVCITVNTTICAGYCPTMTRVLQGVLPALPQVVCNYRDVRFESIRLPGCPRGVNPVVSYAVALSCQCALCRRSTTDCGGPKDHPLTCDDPRFQDSSSSKAPPPSLPSPSRLPGPSDTPILPQ
As a reminder, the Kd is a measure of binding affinity in units of concentration. Higher therefore signals lower affinity. As for B1, the Kd in test [1] and in test [2] was 0.412 nM throughout.

B2: human FSH (ligand)
chain 1: not shown
chain 2: NSCELTNITIAIEKEECRFCISINTTWCAGYCYTRDLVYKDPARPKIQKTCTFKELVYETVRVPGCAHHADSLYTYPVATQCHCGKCDSDSTDCTVRGLGPSYCSFGEMKE
Turning to B2, the equilibrium dissociation constant (Kd) is 3.64 nM in the test with FSHR^S18A; 1.56 nM with FSHR^N10A; 2.56 nM with FSHR^F13A; 2.78 nM in the test with FSHR^S9A; 2.53 nM with FSHR^V12A; 1.37 nM with FSHR^L14A.

B3: FSH (ligand)
chain 1: not shown
chain 2: NSCELTNITIAIEKEECRFCISINTTWCAGYCYTRDLVYKDPARPKIQKTCTFKELVYETVRVPGCAHHADSLYTYPVATQCHCGKCDSDSTDCTVRGLGPSYCSFGEMKE
B3: the Kd with C is 3.9 nM; in the test with P, 1.6 nM; in the test with D it was 1.2 nM; in the test with K590 Q, 19.6 nM; with P582 E, 6.5 nM; in the test with P582 R, 4.1 nM. The Kd stood at 2.4 nM with P582 C; 4.3 nM with P582 Y; 1.9 nM with P582 L; 6.2 nM with P582 Q; 4.5 nM with P582 S; 3.6 nM in the test with P582 D. In the test with P582 F, this molecule registered an equilibrium dissociation constant (Kd) of 4.7 nM.

Values taken from patent US20050142135A1 (published 2005).
